One may read the Km as the concentration of substrate that gives half-maximal velocity.

For data set [1] the following is noted: background statement; cited from earlier work.
Substrate in data set [2]: COc1cccc2c1CCOC2C1=NCCN1
Nature of the data set: Incubation with rhCYP2D6 Supersomes: intrinsic clearance and enzyme kinetics. The note with it: other: rhCYP2D6, 0.16-100 μM, 10 pmol/ml CYP. Format: in vitro ADME, human. As for the experimental part: The objective of these studies was to identify enzymes involved in the metabolism of tasipimidine in human. The test substance tasipimidine and the reference compounds for main tasipimidine metabolites 1-(4,5-dihydro-1H-imidazol-2-yl) isochroman-5-ol (metabolite 1), 2-(5-methoxyisochroman-1-yl)-1H-imidazole (metabolite 2), and 1-(1H-imidazol-2-yl) isochroman-5-ol (metabolite 3) were supplied by Orion Pharma. To further support the findings of recombinant enzyme incubations tasipimidine was incubated with human hepatocytes with two enzyme inhibitors, i.e. 1-aminobenzotriazole (ABT, non-selective CYP inhibitor), and quinidine (CYP2D6 inhibitor).
Moreover, enzyme kinetics of tasipimidine metabolism was studied in rhCYP2D6.
Enzyme kinetics of tasipidimine metabolism by rhCYP2D6 was studied by incubating the test compound at 0.16, 0.41, 1, 2.6, 6.4, 16, 40 and 100 μM concentrations containing 10 pmol/ml of the CYP enzyme for 0, 5, 10, 20, and 30 min. Enzyme kinetics was estimated from CLint values measured for the test compound at different concentrations while metabolite characterisation was not performed.
The analysis for disappearance of tasipimidine and the identification of the formed metabolites were carried out by using a high-resolution liquid chromatographic-mass spectrometer supported by accurate masses (UPLC-HRMS). […]

Substrate in data set [3]: COc1cccc2c1CCOC2C1=NCCN1
The data set can be described thus: CYP2D6 kinetic parameters (PBPK input parameters). Format: in vitro ADME. The note with it: other: input parameter of the PBPK model. From the text: A physiologically based pharmacokinetic (PBPK) model was used to simulate the plasma exposure of tasipimidine in fasted healthy 30 years old males of 70 kg with different CYP2D6 phenotypes. Simulations were produced with the commercial GastroPlus® 9.8.2 software.

Regarding `Clc1cccc(Cl)c1N=C1NCCN1` [clonidine], the “elimination half-life (t1/2)” value in data set [1] was 14 h.

B1: rhCYP2D6 (Homo sapiens) (protein)
chain: MGLEALVPLAVIVAIFLLLVDLMHRRQRWAARYPPGPLPLPGLGNLLHVDFQNTPYCFDQLRRRFGDVFSLQLAWTPVVVLNGLAAVREALVTHGEDTADRPPVPITQILGFGPRSQGVFLARYGPAWREQRRFSVSTLRNLGLGKKSLEQWVTEEAACLCAAFANHSGRPFRPNGLLDKAVSNVIASLTCGRRFEYDDPRFLRLLDLAQEGLKEESGFLREVLNAVPVLLHIPALAGKVLRFQKAFLTQLDELLTEHRMTWDPAQPPRDLTEAFLAEMEKAKGNPESSFNDENLRIVVADLFSAGMVTTSTTLAWGLLLMILHPDVQRRVQQEIDDVIGQVRRPEMGDQAHMPYTTAVIHEVQRFGDIVPLGVTHMTSRDIEVQGFRIPKGTTLITNLSSVLKDEAVWEKPFRFHPEHFLDAQGHFVKPEAFLPFSAGRRACLGEPLARMELFLFFTSLLQHFSFSVPTGQPRPSHHGVFAFLVSPSPYELCAVPR
notes: purchased; host or cells: baculovirus-transfected insect cells
Take B1: in data set [2], the Km was determined as 0.53 µM and the kcat came out at 3.1 pmol/min/pmol CYP.

B2: CYP2D6 (Homo sapiens) (protein)
chain: MGLEALVPLAVIVAIFLLLVDLMHRRQRWAARYPPGPLPLPGLGNLLHVDFQNTPYCFDQLRRRFGDVFSLQLAWTPVVVLNGLAAVREALVTHGEDTADRPPVPITQILGFGPRSQGVFLARYGPAWREQRRFSVSTLRNLGLGKKSLEQWVTEEAACLCAAFANHSGRPFRPNGLLDKAVSNVIASLTCGRRFEYDDPRFLRLLDLAQEGLKEESGFLREVLNAVPVLLHIPALAGKVLRFQKAFLTQLDELLTEHRMTWDPAQPPRDLTEAFLAEMEKAKGNPESSFNDENLRIVVADLFSAGMVTTSTTLAWGLLLMILHPDVQRRVQQEIDDVIGQVRRPEMGDQAHMPYTTAVIHEVQRFGDIVPLGVTHMTSRDIEVQGFRIPKGTTLITNLSSVLKDEAVWEKPFRFHPEHFLDAQGHFVKPEAFLPFSAGRRACLGEPLARMELFLFFTSLLQHFSFSVPTGQPRPSHHGVFAFLVSPSPYELCAVPR
Regarding B2, the Km in data set [3] amounted to 0.106 mg/L.

Source of the values: patent publication US20260097017A1, “TASIPIMIDINE AND CYP2D6 INHIBITOR COMBINATION TREATMENT” (ORION CORPORATION, priority 2022, published 2026).
